Patent publication US20190144550A1 (Pfizer, published 2019)
Changes are numbered by the printed parent chain. Values belong to the binder of their own block, whether it stands above or below them.

How the values were obtained:
[1] = target: T1, Monomeric 8-histidine tagged human EGFRvIII extracellular domain (human, UniProt P00533 298-645); assay: SPR, captured by anti-mouse Fc, 37 C
T1 construct: Analyte in all SPR assays; not shown: 8-histidine tag

[2] = target: T2, human EGFRvIII expressed on cells (human, UniProt P00533 298-1210); assay: flow cytometry, F98-npEGFRvIII against F98, F98-EGFRwt and A431 cells
T2 construct: the F98-npEGFRvIII line was obtained from ATCC and its construct is not described; also called F98-npEGFRvIII; F98-EGFRvIII

[3] = target: T2, human EGFRvIII expressed on cells; assay: flow cytometry, F98-npEGFRvIII cells
[4] = target: T3, 8-histidine tagged recombinant wild-type protein EGFRwt (UniProt P00533 25-645, limits assumed); assay: SPR, captured by anti-mouse Fc
T3 construct: not shown: 8-histidine tag

[5] = target: T4, EGFR-mFc (human; mouse, UniProt P00533 25-645); assay: flow cytometry, CAR T cells stained with mFc fusion protein, Day 4
T4 construct: extracellular domain; Produced in HEK293 cells; also called recombinant EGFR-mFc; not shown: mouse IgG1-Fc domain
Description: To determine target binding specificity of the CARs, recombinant proteins EGFRvII-mFc and EGFR-mFc, which comprise of the extracellular domain of either human EGFRvIII or human wild-type EGFR, respectively, fused with mouse IgG1-Fc domain, were produced in HEK293 cells. […]

[6] = target: T1, Monomeric 8-histidine tagged human …; assay: SPR, scFv-Fc captured by anti-human Fc, 37 C
Description: The scFv fragment was then fused to human IgG1 Fc moiety to facilitate recombinant expression and purification. Affinities of the scFv-Fc fusion proteins were measured at 37° C. on a surface plasmon resonance Biacore™ T200 biosensor equipped with an anti-human Fc coupled CM4 sensor chip (GE Healthcare Inc., Piscataway, N.J.) as described above. scFv-Fc proteins were captured by anti-human Fc. Monomeric 8-histidine tagged human EGFRvIII extracellular domain was then injected as the analyte at 10-fold dilution series starting at 1000 nM.

[7] = target: T3, 8-histidine tagged recombinant …; assay: SPR, captured by anti-human Fc, 25 C

B1: 30D8 (antibody, V domains shown)
VH: EVQLVESGGGLVKPGGSLRLSCEASGFTFSDAWMSWVRQAPGKGLEWVGRIKSKTDGGTTDYVVPLNGRFIISRDDSRNTLYLQLNNLKTEDTAVYYCTTVPGSYGYWGQGTLVTVSS
VL: DIVMTQSPLSLPVTPGEPASISCRSSQSLLHNKRNNYLDWFLQKPGQSPQLLIYLASNRASGVPDRFSGGGSGTDFTLKISRVEAEDVGVYYCMQAQQTPITFGQGTRLEIK
notes: Hybridoma supernatant (AlivaMab mouse); captured/detected via mouse Fc
- Kd [1]: 172 nM
- koff [1]: 0.0277 s⁻¹
- kon [1]: 161000 M⁻¹ s⁻¹
- fold MFI on EGFRvIII expressing cell line over non-expressing cell lines [2]: ≥ 10 fold
- % positive [3]: 98.6%
- MFI [3]: 5160
- binding result [4]: no binding (tested: 1000 nM)

B3: 20E12.LH scFv-Fc protein (Fc fusion)
chain: DIVLTQSPLSLSVTPGEPASISCRSSQSLLYSNGKNYLDWFLHKPGQSPQLLIYLGSNRASGVPDRFSGSGSGIDFILKISRVEAEDVGVYYCMQAQQTPITFGQGTRLEIKGGGGSGGGGSGGGGSGGGGSEVNLVESGGGLVKPGGSLRLSCEASGFTFSYAWMSWVRQAPGKGLEWVGRIKSIADGGATDYAAPVRNRFTISRDDSRNTLYLEMHSLKTEDTAVYYCTTIPGNDAFDMWGQGTMVTVSS
notes: LH: light-chain variable domain at the N-terminus; not shown: human IgG1 Fc moiety
- Kd [6]: 932 nM
- koff [6]: 0.015 s⁻¹
- kon [6]: 16000 M⁻¹ s⁻¹
- binding result [7]: no binding (tested: 1000 nM)

B4: 30D8.LH scFv-Fc protein (Fc fusion)
chain: DIVMTQSPLSLPVTPGEPASISCRSSQSLLHNKRNNYLDWFLQKPGQSPQLLIYLASNRASGVPDRFSGGGSGTDFTLKISRVEAEDVGVYYCMQAQQTPITFGQGTRLEIKGGGGSGGGGSGGGGSGGGGSEVQLVESGGGLVKPGGSLRLSCEASGFTFSDAWMSWVRQAPGKGLEWVGRIKSKTDGGTTDYVVPLNGRFIISRDDSRNTLYLQLNNLKTEDTAVYYCTTVPGSYGYWGQGTLVTVSS
notes: as for B3
- Kd [6]: 349 nM
- koff [6]: 0.038 s⁻¹
- kon [6]: 110000 M⁻¹ s⁻¹
- binding result [7]: no binding (tested: 1000 nM)

B5: 20G5 (antibody, V domains shown)
VH: EVQLVESGGDLVKPGGSLRLSCAASGFTFTNAWMSWVRQAPGKGLEWVGRIKSKIDGGTTDYAAPVKGRFIISRDDSKNTLSLQMNSLKTEDTAMYYCTTAPGGPFDYWGQGSLVTVSS
VL: DIVLTQSPLSLPVTPGEPASISCRSSQSLLYSDRRNYLDWFLQKPGQSPHLLIYLGSYRASGVPDRFSGSGSGTDFTLKISRVEAEDVGVYYCMQALQIPITFGQGTRLEIK
notes: as for B1
- Kd [1]: 231 nM
- koff [1]: 0.0289 s⁻¹
- kon [1]: 125000 M⁻¹ s⁻¹
- % positive [3]: 98.5%
- MFI [3]: 4640
- binding result [4]: no binding (tested: 1000 nM)

B6: 26B9 (antibody, V domains shown)
VH: EVQLVESWGVLVKPGGSLRLSCAASGFIFNNAWMSWVRQAPGKGLEWIGRIKSKSDGGTTDYAAPVKDRFTISRDDSKDTLYLQMNGLKTEDTAVYFCTTAPGGPFDYWGQGTLVTVSS
VL: B5 VL with Y31H, S32R, R34G, R35F, H50Q, G56A, Y58S, G71D, I99T
notes: as for B1
- Kd [1]: 244 nM
- koff [1]: 0.032 s⁻¹
- kon [1]: 131000 M⁻¹ s⁻¹
- fold MFI on EGFRvIII expressing cell line over non-expressing cell lines [2]: ≥ 10 fold
- % positive [3]: 98.6%
- MFI [3]: 5400
- binding result [4]: no binding (tested: 1000 nM)

B9: 20E12.HL scFv-Fc protein (Fc fusion)
chain: EVNLVESGGGLVKPGGSLRLSCEASGFTFSYAWMSWVRQAPGKGLEWVGRIKSIADGGATDYAAPVRNRFTISRDDSRNTLYLEMHSLKTEDTAVYYCTTIPGNDAFDMWGQGTMVTVSSGGGGSGGGGSGGGGSGGGGSDIVLTQSPLSLSVTPGEPASISCRSSQSLLYSNGKNYLDWFLHKPGQSPQLLIYLGSNRASGVPDRFSGSGSGIDFILKISRVEAEDVGVYYCMQAQQTPITFGQGTRLEIK
notes: HL: heavy-chain variable domain at the N-terminus; not shown: human IgG1 Fc moiety
- Kd [6]: 894 nM
- koff [6]: 0.019 s⁻¹
- kon [6]: 21000 M⁻¹ s⁻¹
- binding result [7]: no binding (tested: 1000 nM)

B11: 20E12 (antibody, V domains shown)
VH: EVNLVESGGGLVKPGGSLRLSCEASGFTFSYAWMSWVRQAPGKGLEWVGRIKSIADGGATDYAAPVRNRFTISRDDSRNTLYLEMHSLKTEDTAVYYCTTIPGNDAFDMWGQGTMVTVSS
VL: DIVLTQSPLSLSVTPGEPASISCRSSQSLLYSNGKNYLDWFLHKPGQSPQLLIYLGSNRASGVPDRFSGSGSGIDFILKISRVEAEDVGVYYCMQAQQTPITFGQGTRLEIK
notes: as for B1
- Kd [1]: 353 nM
- koff [1]: 0.0141 s⁻¹
- kon [1]: 39900 M⁻¹ s⁻¹
- fold MFI on EGFRvIII expressing cell line over non-expressing cell lines [2]: ≥ 10 fold
- % positive [3]: 97.9%
- MFI [3]: 3980
- binding result [4]: no binding (tested: 1000 nM)

B12: 32G8 (antibody, V domains shown)
VH: B11 VH with A55T, A59V, T60I, F70C, A106D, T114R
VL: B11 VL
notes: as for B1
- Kd [1]: 1790 nM
- koff [1]: 0.0122 s⁻¹
- kon [1]: 6820 M⁻¹ s⁻¹
- fold MFI on EGFRvIII expressing cell line over non-expressing cell lines [2]: ≥ 10 fold
- % positive [3]: 98.6%
- MFI [3]: 3730
- binding result [4]: no binding (tested: 1000 nM)

Continued, values first:

- binding result [5]: no binding
B2: 20B9 EGFRvIII specific CAR (other)
chain: QVTLKESGPVLVKPTETLTLTCTVSGFSLSNARMGVSWIRQPPGKALEWLGHIFSTDEKSYSTSLRGRITISKDTSRGLVVLTLTNMDPVDTATYYCARDSSNYEGYFDFWGPGFLVTVSSGGGGSGGGGSGGGGSGGGGSEIVMTQSPATLSVSPGERATLSCRVSQSIGANLAWYQQKFGQAPRLLIYGASTRATGIPVRFSGGGSGTEFTLTISSLQSEDFAIYSCQQYIYWPFTFGPGTTVDIKTTTPAPRPPTPAPTIASQPLSLRPEACRPAAGGAVHTRGLDFACDIYIWAPLAGTCGVLLLSLVITLYCKRGRKKLLYIFKQPFMRPVQTTQEEDGCSCRFPEEEEGGCELRVKFSRSADAPAYQQGQNQLYNELNLGRREEYDVLDKRRGRDPEMGGKPRRKNPQEGLYNELQKDKMAEAYSEIGMKGERRRGKGHDGLYQGLSTATKDTYDALHMQALPPR
notes: Chimeric antigen receptor on primary human T cells

- binding result [5]: no binding
B7: h62G7-L6/EQ EGFRvIII specific CAR (other)
chain: DVVMTQSPLSLPVTLGQPASISCKSSQSLLYSNGKTYLNWFQQRPGQSPRRLIYQVSKLDSGVPDRFSGSGSGTDFTLKISRVEAEDVGVYYCGQDTHFPLTFGGGTKVEIKGGGGSGGGGSGGGGSGGGGSQVQLVQSGAEVKKPGASVKVSCKASGYTFTDYTLHWVRQAPGQGLEWMGGIWPITGGTTYNQKFKGRVTMTRDTSTSTVYMELSSLRSEDTAVYYCARGEAQGSWGQGTLVTVSSTTTPAPRPPTPAPTIASQPLSLRPEACRPAAGGAVHTRGLDFACDIYIWAPLAGTCGVLLLSLVITLYCKRGRKKLLYIFKQPFMRPVQTTQEEDGCSCRFPEEEEGGCELRVKFSRSADAPAYQQGQNQLYNELNLGRREEYDVLDKRRGRDPEMGGKPRRKNPQEGLYNELQKDKMAEAYSEIGMKGERRRGKGHDGLYQGLSTATKDTYDALHMQALPPR
notes: as for B2

- binding result [5]: no binding
B8: 14C11 EGFRvIII specific CAR (other)
chain: QVTLKESGPVLVKPTETLTLTCTVSGFSLNNARMGVSWIRQPPGKALEWFAHIFSTDEKSFRTSLRSRLTLSKDTSKSQVVLTMTNMDPVDTATYYCARDSSNYEGYFDYWGQGILVTVSSGGGGSGGGGSGGGGSGGGGSEIVMTQSPATLSVSPGERATLSCRASQSVSNNLAWYQQKPGQAPRLLIYGASTRATGVPARFSGSDSGTEFSLTISSLQSEDFAVYFCQQYKDWPFTFGPGTKVEIKTTTPAPRPPTPAPTIASQPLSLRPEACRPAAGGAVHTRGLDFACDIYIWAPLAGTCGVLLLSLVITLYCKRGRKKLLYIFKQPFMRPVQTTQEEDGCSCRFPEEEEGGCELRVKFSRSADAPAYQQGQNQLYNELNLGRREEYDVLDKRRGRDPEMGGKPRRKNPQEGLYNELQKDKMAEAYSEIGMKGERRRGKGHDGLYQGLSTATKDTYDALHMQALPPR
notes: as for B2

- Kd [6]: 1490 nM
- koff [6]: 0.013 s⁻¹
- kon [6]: 8700 M⁻¹ s⁻¹
- binding result [7]: no binding (tested: 1000 nM)
B10: 32G8.HL scFv-Fc protein (Fc fusion)
chain: B9 chain with A55T, A59V, T60I, F70C, A106D, T114R
notes: as for B9

- Kd [1]: 340 nM
- koff [1]: 0.0128 s⁻¹
- kon [1]: 37700 M⁻¹ s⁻¹
- fold MFI on EGFRvIII expressing cell line over non-expressing cell lines [2]: ≥ 10 fold
- % positive [3]: 98.5%
- MFI [3]: 4130
- binding result [4]: no binding (tested: 1000 nM)
B13: 34E7 (antibody, V domains shown)
VH: B11 VH with A55N, A64S, T80M, M115L
VL: B11 VL with S26T, Y54F, N58I
notes: as for B1
